{
  "source": "patent US20260102505A1",
  "about": "“ANTI-CD45-IGN ANTIBODY DRUG CONJUGATES AND USES THEREOF” (Vor Biopharma Inc., priority 2022, published 2026)",
  "data": [
    {"system": "human CD45, cyno CD45 and rhesus CD45", "assay": "CD45 binding / species cross-reactivity of antibodies", "design": "species or system cynomolgus", "values": [
      {"molecule": "AbA: humanized and affinity matured anti-CD45 antibody, VH SEQ ID NO:71, VL SEQ ID NO:75 (antibody, V domains shown) VH: EVQLLESGGGLVQPGGSLRLSCAASGFTFNNYWMTWVRQAPGKGLEWVSSISSSGGSIYYPDRVKGRFTISRDNSKNTLYLQMNSLRAEDTAVYYCARDERWAGAMDAWGQGTTVTVSS VL: DIQMTQSPSSLSASVGDRVTITCKASQNINKNLDWYQQKPGKAPKLLIYETNNLQTGVPSRFSGSGSGTDFTLTISSLQPEDFATYYCYQHNSRFTFGQGTKLEIK", "cross-reactivity with CD45 of species (in words)": "cross reacts with human CD45, cyno CD45 and rhesus CD45"},
      {"molecule": "Ab2: human anti-CD45 antibody, VH SEQ ID NO:11, VL SEQ ID NO:15 (antibody, V domains shown) VH: EVQLVESGGGLVQPGGSLRLSCAASGFTFEAYSMNWVRQAPGKGLEWVSYISLSGATIHYADSVKGRFTISRDNAKNSLYLQMNSLRAEDTAVYYCARGGQYYYDSSDYGEVAFDIWGQGTMVTVSS VL: DIVMTQSPLSLPVTPGEPASISCRSSQSLVSNGYNYLDWYLQKPGQSPQLLIYFGSSRASGVPDRFSGSGSGTDFTLKISRVEAEDVGVYYCMQRRRTPWSFGGGTKVEIK", "cross-reactivity with CD45 of species (in words)": "cross reacts with human CD45, cyno CD45 and rhesus CD45"},
      {"molecule": "Ab4: human anti-CD45 antibody, VH SEQ ID NO:31, VL SEQ ID NO:35 (antibody, V domains shown) VH: EVQLVESGGGLVQPGGSLRLSCAASGFTFEAYSMNWVRQAPGKGLEWVSYISLSGATIHYADSVKGRFTISRDNAKNSLYLQMNSLRAEDTAVYYCARGGQYYYTSSDYGEVAFDIWGQGTMVTVSS VL: DIVMTQSPLSLPVTPGEPASISCRSSQSLVSNGYNYLDWYLQKPGQSPQLLIYFGSSRASGVPDRFSGSGSGTDFTLKISRVEAEDVGVYYCMQRRRTPWSFGGGTKVEIK", "cross-reactivity with CD45 of species (in words)": "cross reacts with human CD45, cyno CD45 and rhesus CD45"},
      {"molecule": "Ab7: human anti-CD45 antibody, VH SEQ ID NO:61, VL SEQ ID NO:65 (antibody, V domains shown) VH: QVQLVESGGGLVKPGGSLRLSCAASGFTFGGYSMNWVRQAPGKGLEWVSYISISGATITYADSVKGRFTISRDNAKNSLYLQMNSLRAEDTAVYYCARGGQYYYDSSDYGEVAFDIWGQGTMVTVSS VL: DIVMTQSPLSLPVTPGEPASISCRSSQSLVSSGYNYLDWYLQKPGQSPQLLIYFGSSRASGVPDRFSGSGSGTDFTLKISRVEAEDVGVYYCMQRRRTPPFTFGGGTKVEIK", "cross-reactivity with CD45 of species (in words)": "cross reacts with human CD45, cyno CD45 and rhesus CD45"},
      {"molecule": "Ab6: human anti-CD45 antibody, VH SEQ ID NO:51, VL SEQ ID NO:55 (antibody, V domains shown) VH: EVQLVESGGGLVQPGGSLRLSCAASGFTFEAYSMNWVRQAPGKGLEWVSYISLSGATIHYADSVKGRFTISRDNAKNSLYLQMNSLRAEDTAVYYCARGGQYYYTSSDYGEVAFDIWGQGTLVTVSS VL: DIVLTQSPLSLPVTPGEPASISCRSSQSLVSSGYNYLDWYLQKPGQSPQLLIYFGSSRASGVPDRFSGSGSGTDFTLKISRVEAEDVGVYYCMQRRRTPWSFGGGTKVEIK", "cross-reactivity with CD45 of species (in words)": "cross reacts with human CD45, cyno CD45 and rhesus CD45"},
      {"molecule": "Ab3: human anti-CD45 antibody, VH SEQ ID NO:21, VL SEQ ID NO:25 (antibody, V domains shown) VH: QVQLVESGGGLVKPGGSLRLSCAASGFTFGGYSMNWVRQAPGKGLEWVSYISISGATITYADSVKGRFTISRDNAKNSLYLQMNSLRAEDTAVYYCARGGQYYYDSSDYGEVAFDIWGQGTMVTVSS VL: DIVMTQSPLSLPVTPGEPASISCRSSQSLVSNGYNYLDWYLQKPGQSPQLLIYFGSSRASGVPDRFSGSGSGTDFTLKISRVEAEDVGVYYCMQRRRTPPFTFGGGTKVEIK", "cross-reactivity with CD45 of species (in words)": "cross reacts with human CD45, cyno CD45 and rhesus CD45"},
      {"molecule": "AbB: humanized and affinity matured anti-CD45 antibody, VH SEQ ID NO:81, VL SEQ ID NO:85 (antibody, V domains shown) VH: EVQLVESGGGLVQPGGSLRLSCAASGFTFTNFWMAWIRQAPGKGLEWVASISSSGGSIYYPDSVKDRFTISRDNSKNTLYLQMNSLRAEDTAVYYCVKFHHYSGGGDAWGQGTLVTVSS VL: DIQMTQSPSSLSASVGDRVTITCKASQNINKYLDWYQQKPGKAPKLLIHYTNNLHTGIPSRFSGSGSGTDYTLTISSLQPEDFATYYCLQHSSRWTFGGGTKVEIK", "cross-reactivity with CD45 of species (in words)": "cross reacts with human CD45, cyno CD45 and rhesus CD45"},
      {"molecule": "AbC: humanized and affinity matured anti-CD45 antibody, VH SEQ ID NO:91, VL SEQ ID NO:95 (antibody, V domains shown) VH: EVQLVESGGGLVQPGGSLRLSCAASGFTFNNYWMTWVRQAPGKGLEWVSSISSSGGSIYYPDSVKDRFTISRDNAKNSLYLQMNSLRAEDMAVYYCARLYYYDGGGDAWGQGTLVTVSS VL: GIQMTQSPSSLSASVGDRVTITCKASQDINKYLDWYQQKPGKAPKLLIYNTNNLHTGIPSRFSGSGSGTDYTLTISSLQPEDFATYYCLQHISRWTFGGGTKVEIK", "cross-reactivity with CD45 of species (in words)": "cross reacts with human CD45, cyno CD45 and rhesus CD45"}
    ]}
  ]
}
